Assay results from FireProtDB (doi:10.1021/bi00123a006).

B1: Ribonuclease, P00648 (parent)
chain: MMKMEGIALKKRLSWISVCLLVLVSAAGMLFSTAAKTETSSHKAHTEAQVINTFDGVADYLQTYHKLPDNYITKSEAQALGWVASKGNLADVAPGKSIGGDIFSNREGKLPGKSGRTWREADINYTSGFRNSDRILYSSDWLIYKTTDHYQTFTKIR

Variants of: B1
Conditions: Bacillus amyloliquefaciens, 25 °C, Urea, NMR, NaCl 1 M, structure 1BNI, whole UniProt chain shown

MMKMEGIALKKRLSWISVCLLVLVSAAGMLFSTAAKTETSSHKAHTEAQVINTFDGVADYLQTYHKLPDNYITKSEAQALHWVASKGNLADVAPGKSIGGDIFSNREGKLPGKSGRTWREADINYTSGFRNSDRILYSSDWLIYKTTDHYQTFTKIR [G81H]
ddG of mutation (higher = less stable) (pH 4.4, Sodium acetate 30 mM): 2.6 kcal/mol | unfolding free energy (pH 4.4, Sodium acetate 30 mM): 5.53 kcal/mol | ddG of mutation (higher = less stable) (pH 8.9, Tris 30 mM): 3.15 kcal/mol | unfolding free energy (pH 8.9, Tris 30 mM): 4.9 kcal/mol

MMKMEGIALKKRLSWISVCLLVLVSAAGMLFSTAAKTETSSHKAHTEAQVINTFDGVADYLQTYHKLPDNYITKSEAQALGWVASKGNLADVAPGKSIGGDIFSNREGKLPGKSGRTWREADINYTSGFRNSDRILYSSDLLIYKTTDHYQTFTKIR [W141L]
unfolding free energy (pH 5.9, MES 30 mM): 7.67 kcal/mol | ddG of mutation (higher = less stable) (pH 8.9, Tris 30 mM): 0.64 kcal/mol | unfolding free energy (pH 8.9, Tris 30 mM): 7.41 kcal/mol

MMKMEGIALKKRLSWISVCLLVLVSAAGMLFSTAAKTETSSHKAHTEAQVINHFDGVADYLQTYHKLPDNYITKSEAQALGWVASKGNLADVAPGKSIGGDIFSNREGKLPGKSGRTWREADINYTSGFRNSDRILYSSDWLIYKTTDHYQTFTKIR [T53H]
ddG of mutation (higher = less stable) (pH 4.4, Sodium acetate 30 mM): 2.65 kcal/mol | unfolding free energy (pH 4.4, Sodium acetate 30 mM): 5.48 kcal/mol | ddG of mutation (higher = less stable) (pH 8.9, Tris 30 mM): 1.56 kcal/mol | unfolding free energy (pH 8.9, Tris 30 mM): 6.49 kcal/mol

MMKMEGIALKKRLSWISVCLLVLVSAAGMLFSTAAKTETSSHKAHTEAQVINTFDGVADYLQTYHKLPDNYIHKSEAQALGWVASKGNLADVAPGKSIGGNIFSNREGKLPGKSGRTWREADINYTSGFRNSDRILYSSDWLIYKTTDHYQTFTKIR [T73H D101N]
ddG of mutation (higher = less stable) (pH 4.4, Sodium acetate 30 mM): 5.74 kcal/mol | unfolding free energy (pH 4.4, Sodium acetate 30 mM): 2.39 kcal/mol | ddG of mutation (higher = less stable) (pH 8.9, Tris 30 mM): 4.27 kcal/mol | unfolding free energy (pH 8.9, Tris 30 mM): 3.78 kcal/mol

MMKMEGIALKKRLSWISVCLLVLVSAAGMLFSTAAKTETSSHKAHTEAQVINTFDGVADYLQTYHKLPDNYITKSEAQALGWVASKGNLADVAPGKSIGGNIFSNREGKLPGKSGRTWREADINYTSGFRNSDRILYSSDWLIYKTTDHYQTFTKIR [D101N]
ddG of mutation (higher = less stable) (pH 4.4, Sodium acetate 30 mM): 2.65 kcal/mol | unfolding free energy (pH 4.4, Sodium acetate 30 mM): 5.48 kcal/mol | ddG of mutation (higher = less stable) (pH 8.9, Tris 30 mM): 2.32 kcal/mol | unfolding free energy (pH 8.9, Tris 30 mM): 5.73 kcal/mol

MMKMEGIALKKRLSWISVCLLVLVSAAGMLFSTAAKTETSSHKAHTEAQVINTFDGVADYLQTYGKLPDNYITKSEAQALGWVASKGNLADVAPGKSIGGDIFSNREGKLPGKSGRTWREADINYTSGFRNSDRILYSSDLLIYKTTDHYQTFTKIR [H65G W141L]
unfolding free energy (pH 5.9, MES 30 mM): 8.11 kcal/mol | ddG of mutation (higher = less stable) (pH 8.9, Tris 30 mM): -0.33 kcal/mol | unfolding free energy (pH 8.9, Tris 30 mM): 8.38 kcal/mol
